From US20250161474A1 (SICHUAN KELUN BIOTECH BIOPHARMACEUTICAL, published 2025)

Experiments:
human c-MET [1] = biological target: T1, human c-MET (human, UniProt P08581 25-1390); assay: flow cytometry on EBC-1 cells (highly express c-MET)
T1 construct: whole, on cells; also called tyrosine protein kinase Met; hepatocyte growth factor receptor
Excerpt: (§1) A flow cytometer (Beckman, model Cytoflex) was used to detect the interaction between anti-human EGFR/c-MET bispecific antibodies and their conjugates and human gastric cancer cells MKN45 (Nanjing Cobioer Biosciences) and human gastric cancer cells overexpressing human EGFR MKN45-EGFR (Kelun-Biotech), human lung squamous cell carcinoma EBC-1 (Nanjing Cobioer Biosciences), human lung squamous cell carcinoma EBC-1-EGFR overexpressing human EGFR (Kelun-Biotech), human non-small cell lung cancer cell HCC827 (ATCC™), and human epidermal squamous cell carcinoma cell A431 (Nanjing Cobioer Biosciences). The protocol was as follows.
(§2) The adherent cells were digested with Trypsin-EDTA solution (0.25%) (Shanghai BasalMedia) and the cell density adjusted to 4.0×10⁶ per mL. The cells were washed twice with 1% BSA and resuspended in 1% BSA solution. Then 50 μL cell suspension was added to each well of a 96-well plate (the number of cells was 2×10⁵ per well). The antibody and its conjugate were diluted with 1% BSA (final concentration 10 µg/mL, 3-fold gradient dilution, a total of 11 concentration points). Then 50 μL of the diluted antibody and ADC were added to the wells of the 96-well plate and the plate was incubated at 4° C. for 60 minutes. The wells of the 96-well plate were then washed twice with 1% BSA, 50 μL of diluted secondary antibody was added to each well, and the 96-well plate was incubated at 4° C. for 30 minutes. Then the cells were washed twice with 1% BSA, and the cells were resuspended in 200 μL of 1% BSA and subjected to flow cytometry detection.

human c-MET [2] = biological target: T1, human c-MET; assay: flow cytometry on MKN45 cells (highly express c-MET)
Excerpt: as §1, §2

human c-MET [3] = biological target: T1, human c-MET; assay: cell-based or functional assay

T1 sequence (P08581 25-1390): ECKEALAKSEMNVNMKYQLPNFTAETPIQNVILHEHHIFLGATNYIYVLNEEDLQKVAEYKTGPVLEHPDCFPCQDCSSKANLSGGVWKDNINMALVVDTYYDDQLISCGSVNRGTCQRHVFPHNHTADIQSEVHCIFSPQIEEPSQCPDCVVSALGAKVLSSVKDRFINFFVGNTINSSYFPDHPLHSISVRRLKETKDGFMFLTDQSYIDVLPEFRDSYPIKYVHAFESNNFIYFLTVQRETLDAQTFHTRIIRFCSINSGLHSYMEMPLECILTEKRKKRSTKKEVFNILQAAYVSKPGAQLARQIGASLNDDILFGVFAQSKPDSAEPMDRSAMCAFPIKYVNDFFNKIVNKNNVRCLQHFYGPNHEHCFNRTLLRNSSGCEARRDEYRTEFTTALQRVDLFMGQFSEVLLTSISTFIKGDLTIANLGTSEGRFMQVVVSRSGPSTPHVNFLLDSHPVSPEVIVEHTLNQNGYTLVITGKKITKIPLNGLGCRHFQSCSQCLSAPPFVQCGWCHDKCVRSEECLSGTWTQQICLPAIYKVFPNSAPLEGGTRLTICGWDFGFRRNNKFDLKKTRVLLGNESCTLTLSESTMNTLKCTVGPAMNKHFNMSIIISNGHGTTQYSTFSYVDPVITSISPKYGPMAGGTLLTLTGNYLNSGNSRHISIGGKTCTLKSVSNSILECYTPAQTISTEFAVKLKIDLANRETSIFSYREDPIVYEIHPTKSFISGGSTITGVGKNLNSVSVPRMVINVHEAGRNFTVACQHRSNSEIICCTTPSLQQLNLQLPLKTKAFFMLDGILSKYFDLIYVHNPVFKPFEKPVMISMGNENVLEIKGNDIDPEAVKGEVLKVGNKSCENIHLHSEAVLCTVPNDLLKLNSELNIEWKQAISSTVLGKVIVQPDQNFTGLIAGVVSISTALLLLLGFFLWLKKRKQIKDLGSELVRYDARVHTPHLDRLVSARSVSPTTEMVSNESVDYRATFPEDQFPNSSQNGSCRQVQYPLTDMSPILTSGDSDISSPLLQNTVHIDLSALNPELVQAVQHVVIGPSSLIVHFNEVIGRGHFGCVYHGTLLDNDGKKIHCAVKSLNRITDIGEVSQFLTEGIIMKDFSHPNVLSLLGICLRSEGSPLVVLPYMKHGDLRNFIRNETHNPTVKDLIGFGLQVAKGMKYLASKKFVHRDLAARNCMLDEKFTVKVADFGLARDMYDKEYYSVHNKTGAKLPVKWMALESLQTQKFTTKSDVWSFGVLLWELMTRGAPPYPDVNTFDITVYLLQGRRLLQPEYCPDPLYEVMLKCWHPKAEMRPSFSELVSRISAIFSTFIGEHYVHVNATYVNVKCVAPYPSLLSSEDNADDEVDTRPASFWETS

Binder | EC50 (human c-MET [1]) | EC50 (human c-MET [2]) | IC50, in vitro cell killing (CCK8) on EBC-1 cells (human c-MET [3]) | IC50, in vitro cell killing (CCK8) on MKN45 cells (human c-MET [3])
BsAb 49B (bispecific antibody, human IgG1, kappa, L234A L235A, Fab-scFv-Fc (KIH) format; anti-c-MET Fab, anti-EGFR scFv; also called BsB 49B; bispecific antibody 49B) light: DIQMTQSPSSLSASVGDRVTITCKSSQSLLYTSSQKNYLAWYQQKPGKAPKLLIYWASTRESGVPSRFSGSGSGTDFTLTISSLQPEDFATYYCQQYYAYPWTFGQGTKVEIKRTVAAPSVFIFPPSDEQLKSGTASVVCLLNNFYPREAKVQWKVDNALQSGNSQESVTEQDSKDSTYSLSSTLTLSKADYEKHKVYACEVTHQGLSSPVTKSFNRGEC heavy: not shown AIQLTQSPSSLSASVGDRVTITCRASQDISSALVWYQQKPGKAPKLLIYDASSLESGVPSRFSGSESGTDFTLTISSLQPEDFATYYCQQFNSYPLTFGGGTKVEIKGGGGSGGGGSGGGGSQVQLVESGGGVVQPGRSLRLSCAASGFTFSTYGMHWVRQAPGKGLEWVAVIWDDGSYKYYGDSVKGRFTISRDNSKNTLYLQMNSLRAEDTAVYYCARDGITMVRGVMKDYFDYWGQGTLVTVSSGGGGDKTHTCPPCPAPEAAGGPSVFLFPPKPKDTLMISRTPEVTCVVVDVSHEDPEVKFNWYVDGVEVHNAKTKPREEQYNSTYRVVSVLTVLHQDWLNGKEYKCKVSNKALAAPIEKTISKAKGQPREPQVCTLPPSRDELTKNQVSLSCAVKGFYPSDIAVEWESNGQPENNYKTTPPVLDSDGSFFLVSKLTVDKSRWQQGNVFSCSVMHEALHNHYTQKSLSLSPGK | 1.32 nM | 0.34 nM | – | –
ADC 07B-A-05 (bispecific antibody, human IgG1, kappa, linker-payload A-05 on reduced Cys sulfhydryls (sites not given); DAR of the whole ADC approximately 6) light: DIQMTQSPSSLSASVGDRVTITCKSSQSLLYTSSQKNYLAWYQQKPGKAPKLLIYWASTRESGVPSRFSGSGSGTDFTLTISSLQPEDFATYYCQQYYAYPWTFGQGTKVEIKRTVAAPSVFIFPPSDEQLKSGTASVVCLLNNFYPREAKVQWKVDNALQSGNSQESVTEQDSKDSTYSLSSTLTLSKADYEKHKVYACEVTHQGLSSPVTKSFNRGEC heavy: not shown AIQLTQSPSSLSASVGDRVTITCRASQDISSALVWYQQKPGKAPKLLIYDASSLESGVPSRFSGSESGTDFTLTISSLQPEDFATYYCQQFNSYPLTFGGGTKVEIKGGGGSGGGGSGGGGSQVQLVESGGGVVQPGRSLRLSCAASGFTFSTYGMHWVRQAPGKGLEWVAVIWDDGSYKYYGDSVKGRFTISRDNSKNTLYLQMNSLRAEDTAVYYCARDGITMVRGVMKDYFDYWGQGTLVTVSSGGGGDKTHTCPPCPAPELLGGPSVFLFPPKPKDTLMISRTPEVTCVVVDVSHEDPEVKFNWYVDGVEVHNAKTKPREEQYNSTYRVVSVLTVLHQDWLNGKEYKCKVSNKALPAPIEKTISKAKGQPREPQVCTLPPSREEMTKNQVSLSCAVKGFYPSDIAVEWESNGQPENNYKTTPPVLDSDGSFFLVSKLTVDKSRWQQGNVFSCSVMHEALHNHYTQKSLSLSPGK | 1.47 nM | – | 0.48 nM | –
BsAb 07B (bispecific antibody, human IgG1, kappa, Fab-scFv-Fc (KIH) format; anti-c-MET Fab, anti-EGFR scFv; expressed in CHO-K1; also called bispecific antibody 07B) light: DIQMTQSPSSLSASVGDRVTITCKSSQSLLYTSSQKNYLAWYQQKPGKAPKLLIYWASTRESGVPSRFSGSGSGTDFTLTISSLQPEDFATYYCQQYYAYPWTFGQGTKVEIKRTVAAPSVFIFPPSDEQLKSGTASVVCLLNNFYPREAKVQWKVDNALQSGNSQESVTEQDSKDSTYSLSSTLTLSKADYEKHKVYACEVTHQGLSSPVTKSFNRGEC heavy: not shown AIQLTQSPSSLSASVGDRVTITCRASQDISSALVWYQQKPGKAPKLLIYDASSLESGVPSRFSGSESGTDFTLTISSLQPEDFATYYCQQFNSYPLTFGGGTKVEIKGGGGSGGGGSGGGGSQVQLVESGGGVVQPGRSLRLSCAASGFTFSTYGMHWVRQAPGKGLEWVAVIWDDGSYKYYGDSVKGRFTISRDNSKNTLYLQMNSLRAEDTAVYYCARDGITMVRGVMKDYFDYWGQGTLVTVSSGGGGDKTHTCPPCPAPELLGGPSVFLFPPKPKDTLMISRTPEVTCVVVDVSHEDPEVKFNWYVDGVEVHNAKTKPREEQYNSTYRVVSVLTVLHQDWLNGKEYKCKVSNKALPAPIEKTISKAKGQPREPQVCTLPPSREEMTKNQVSLSCAVKGFYPSDIAVEWESNGQPENNYKTTPPVLDSDGSFFLVSKLTVDKSRWQQGNVFSCSVMHEALHNHYTQKSLSLSPGK | 1.46 nM | – | – | –
BsAb 10B (bispecific antibody, human IgG1, kappa, Fab-scFv-Fc (KIH) format; anti-EGFR Fab, anti-c-MET scFv; also called bispecific antibody 10B) light: not shown heavy: not shown DIQMTQSPSSLSASVGDRVTITCKSSQSLLYTSSQKNYLAWYQQKPGKAPKLLIYWASTRESGVPSRFSGSGSGTDFTLTISSLQPEDFATYYCQQYYAYPWTFGQGTKVEIKGGGGSGGGGSGGGGSEVQLVESGGGLVQPGGSLRLSCAASGYTFTSYWLHWVRQAPGKGLEWVGMIDPSNSDTRFNPNFKDRFTISADTSKNTAYLQMNSLRAEDTAVYYCATYRSYVTPLDYWGQGTLVTVSSGGGGDKTHTCPPCPAPELLGGPSVFLFPPKPKDTLMISRTPEVTCVVVDVSHEDPEVKFNWYVDGVEVHNAKTKPREEQYNSTYRVVSVLTVLHQDWLNGKEYKCKVSNKALPAPIEKTISKAKGQPREPQVCTLPPSREEMTKNQVSLSCAVKGFYPSDIAVEWESNGQPENNYKTTPPVLDSDGSFFLVSKLTVDKSRWQQGNVFSCSVMHEALHNHYTQKSLSLSPGK | 1.51 nM | 1.1 nM | – | –
BsAb 38B (bispecific antibody, human IgG1, kappa, L234A L235A, Fab-scFv-Fc (KIH) format; anti-EGFR Fab, anti-c-MET scFv; also called bispecific antibody 38B) light: not shown heavy: not shown DIQMTQSPSSLSASVGDRVTITCKSSQSLLYTSSQKNYLAWYQQKPGKAPKLLIYWASTRESGVPSRFSGSGSGTDFTLTISSLQPEDFATYYCQQYYAYPWTFGQGTKVEIKGGGGSGGGGSGGGGSEVQLVESGGGLVQPGGSLRLSCAASGYTFTSYWLHWVRQAPGKGLEWVGMIDPSNSDTRFNPNFKDRFTISADTSKNTAYLQMNSLRAEDTAVYYCATYRSYVTPLDYWGQGTLVTVSSGGGGDKTHTCPPCPAPEAAGGPSVFLFPPKPKDTLMISRTPEVTCVVVDVSHEDPEVKFNWYVDGVEVHNAKTKPREEQYNSTYRVVSVLTVLHQDWLNGKEYKCKVSNKALAAPIEKTISKAKGQPREPQVCTLPPSRDELTKNQVSLSCAVKGFYPSDIAVEWESNGQPENNYKTTPPVLDSDGSFFLVSKLTVDKSRWQQGNVFSCSVMHEALHNHYTQKSLSLSPGK | – | 1.16 nM | – | –
ADC 38B-A-14 (bispecific antibody, human IgG1, kappa, L234A L235A, linker-payload A-14 on reduced Cys sulfhydryls (sites not given); DAR of the whole ADC approximately 6) light: not shown heavy: not shown DIQMTQSPSSLSASVGDRVTITCKSSQSLLYTSSQKNYLAWYQQKPGKAPKLLIYWASTRESGVPSRFSGSGSGTDFTLTISSLQPEDFATYYCQQYYAYPWTFGQGTKVEIKGGGGSGGGGSGGGGSEVQLVESGGGLVQPGGSLRLSCAASGYTFTSYWLHWVRQAPGKGLEWVGMIDPSNSDTRFNPNFKDRFTISADTSKNTAYLQMNSLRAEDTAVYYCATYRSYVTPLDYWGQGTLVTVSSGGGGDKTHTCPPCPAPEAAGGPSVFLFPPKPKDTLMISRTPEVTCVVVDVSHEDPEVKFNWYVDGVEVHNAKTKPREEQYNSTYRVVSVLTVLHQDWLNGKEYKCKVSNKALAAPIEKTISKAKGQPREPQVCTLPPSRDELTKNQVSLSCAVKGFYPSDIAVEWESNGQPENNYKTTPPVLDSDGSFFLVSKLTVDKSRWQQGNVFSCSVMHEALHNHYTQKSLSLSPGK | 1.29 nM | – | 1.03 nM | 0.3 nM
